In patent US20190352359A1 (IMMATICS BIOTECHNOLOGIES, published 2019):

target: T1, HLA-A*24; experiment: UV peptide-exchange ELISA (anti-b2m); yield grade ++++ = >75%
T1 construct: Monomers captured on streptavidin plates; also called peptide-receptive MHC molecules; MHC complexes
Text: Candidate peptides for T cell based therapies according to the present invention were further tested for their MHC binding capacity (affinity). The individual peptide-MHC complexes were produced by UV-ligand exchange, where a UV-sensitive peptide is cleaved upon UV-irradiation, and exchanged with the peptide of interest as analyzed. Only peptide candidates that can effectively bind and stabilize the peptide-receptive MHC molecules prevent dissociation of the MHC complexes. To determine the yield of the exchange reaction, an ELISA was performed based on the detection of the light chain (p2m) of stabilized MHC complexes. The assay was performed as generally described in Rodenko et al. (Rodenko et al., 2006)
96 well MAXISorp plates (NUNC) were coated over night with 2 ug/ml streptavidin in PBS at room temperature, washed 4× and blocked for 1 h at 37° C. in 2% BSA containing blocking buffer. Refolded HLA-A*02:01/MLA-001 monomers served as standards, covering the range of 15-500 ng/ml. Peptide-MHC monomers of the UV-exchange reaction were diluted 100-fold in blocking buffer. Samples were incubated for 1 h at 37° C., washed four times, incubated with 2 ug/ml HRP conjugated anti-β2m for 1h at 37° C., washed again and detected with TMB solution that is stopped with […]. Absorption was measured at 450 nm. Candidate peptides that show a high exchange yield (preferably higher than 50%, most preferred higher than 75%) are generally preferred for a generation and production of antibodies or fragments thereof, and/or T cell receptors or fragments thereof, as they show sufficient avidity to the MHC molecules and prevent dissociation of the MHC complexes.

| peptide exchange yield [%] | Binder |
| --- | --- |
| > 75 | KYVGEVFNI (also called KYVGEVFNI) [DMXL1-001] |
| > 75 | NYSPVTGKF (also called NYSPVTGKF) [OTOL-001] |
| > 75 | AWSPPATLFLF (also called AWSPPATLFLF) [LOXL4-003] |
| > 75 | VYNNNSSRF (also called VYNNNSSRF) [MYO10-003] |
| > 75 | QYGFNYNKF (also called QYGFNYNKF) [PNLD-002] |
| > 75 | VYLASVAAF (also called VYLASVAAF) [SLC45A3-006] |
| > 75 | PYFSPSASF (also called PYFSPSASF) [SPER-001] |
| > 75 | RYLEEHTEF (also called RYLEEHTEF) [MROH2A-003] |
| > 75 | AFISVPLLI (also called AFISVPLLI) [TAS2R38-003] |
| > 75 | RYAHTLVTSVLF (also called RYAHTLVTSVLF) [ITIH6-003] |
| > 75 | VYKWTEEKF (also called VYKWTEEKF) [TSPE-001] |
| > 75 | LYITKVTTI (also called LYITKVTTI) [FSTL4-002] |
| > 75 | TYETVMTFF (also called TYETVMTFF) [BTBD16-003] |
| > 75 | VYAVISNIL (also called VYAVISNIL) [TNR-003] |
| > 75 | IYTDITYSF (also called IYTDITYSF) [CHRNA6-002] |
| > 75 | FYHEDMPLW (also called FYHEDMPLW) [FCRL5-004] |
| > 75 | DYIQMIPEL (also called DYIQMIPEL) [RTL-002] |
| > 75 | KLPTEWNVL (also called KLPTEWNVL) [AKAP13-005] |
| > 75 | YYAADQWVF (also called YYAADQWVF) [CCR4-004] |
| > 75 | IYANVTEMLL (also called IYANVTEMLL) [CYP27C-001] |
| > 75 | MYGIVIRTI (also called MYGIVIRTI) [NPSR-001] |
| > 75 | FYIRRLPMF (also called FYIRRLPMF) [CHRNA6-001] |
| > 75 | TYIDFVPYI (also called TYIDFVPYI) [TEX15-001] |

| peptide exchange yield [%] | Binder |
| --- | --- |
| > 75 | NYMDTDNLMF (also called NYMDTDNLMF) [LOC1001246-002] |
| > 75 | IYMTTGVLL (also called IYMTTGVLL) [TDRD9-002] |
| > 75 | AYFVAMHLF (also called AYFVAMHLF) [TENM4-007] |
| > 75 | YQSRDYYNF (also called YQSRDYYNF) [AR-002] |
| > 75 | RYILEPFFI (also called RYILEPFFI) [SLC7A11-007] |
| > 75 | KWKPSPLLF (also called KWKPSPLLF) [GPR126-002] |
| > 75 | VYLTWLPGL (also called VYLTWLPGL) [IFNLR-001] |
| > 75 | HWSHITHLF (also called HWSHITHLF) [DPY19L1-003] |
| > 75 | GYFGNPQKF (also called GYFGNPQKF) [LAMA3-002] |
| > 75 | NYPEGAAYEF (also called NYPEGAAYEF) [ESR1-008] |
| > 75 | IFMGAVPTL (also called IFMGAVPTL) [LPAR3-001] |
| > 75 | VYTVGHNLI (also called VYTVGHNLI) [KLB-003] |
| > 75 | KMGRIVDYF (also called KMGRIVDYF) [GABRP-003] |
| > 75 | VYSDLHAFY (also called VYSDLHAFY) [MANEAL-004] |
| > 75 | AAFISVPLLI (also called AAFISVPLLI) [TAS2R38-002] |
| > 75 | EYQQYHPSL (also called EYQQYHPSL) [CLEC4C-001] |
| > 75 | SYPKELMKF (also called SYPKELMKF) [MROH2A-004] |
| > 75 | SYLWTDNLQEF (also called SYLWTDNLQEF) [DNAH17-003] |
| > 75 | LQPQPQLFFSF (also called LQPQPQLFFSF) [POT-002] |
| > 75 | SFISPRYSWLF (also called SFISPRYSWLF) [SPNS3-005] |
| > 75 | QYLSIAERAEF (also called QYLSIAERAEF) [MSX-001] |
| > 75 | VHMKDFFYF (also called VHMKDFFYF) [DYRK4-001] |
| > 75 | IYFATQVVF (also called IYFATQVVF) [SLC45A3-004] |

| peptide exchange yield [%] | Binder |
| --- | --- |
| > 75 | KYNRQSMTL (also called KYNRQSMTL) [APOB-080] |
| > 75 | FYQPDLKYLSF (also called FYQPDLKYLSF) [NLRP4-003] |
| > 75 | EYIDEFQSL (also called EYIDEFQSL) [RTL-003] |
| > 75 | RYENVSILF (also called RYENVSILF) [ADCY8-001] |
| > 75 | RYADLLIYTY (also called RYADLLIYTY) [MYO3B-005] |
| > 75 | IFMENAFEL (also called IFMENAFEL) [APOB-079] |
| > 75 | VYDYIPLLL (also called VYDYIPLLL) [MROH2A-005] |
| > 75 | KYKDHFTEI (also called KYKDHFTEI) [MAGEB1-001] |
| > 75 | GYFGTASLF (also called GYFGTASLF) [SLC16A14-001] |
| > 75 | RYQSVIYPF (also called RYQSVIYPF) [AGTR2-002] |
| > 75 | FYPEVELNF (also called FYPEVELNF) [MMP1-009] |
| > 75 | EVYQKIILKF (also called EVYQKIILKF) [PASD-001] |
| > 75 | IYLVGGYSW (also called IYLVGGYSW) [KLHL14-007] |
| > 75 | KFLTHDVLTELF (also called KFLTHDVLTELF) [TRPM8-009] |
| > 75 | IQNAILHLF (also called IQNAILHLF) [OR51B5-001] |
| > 75 | VYDSIWCNM (also called VYDSIWCNM) [SCGB2A1-001] |
| > 75 | VYCSLDKSQF (also called VYCSLDKSQF) [RTL-004] |
| > 75 | NFYLFPTTF (also called NFYLFPTTF) [PNLD-001] |
| > 75 | RFLDRGWGF (also called RFLDRGWGF) [ADAMTS12-005] |
| > 75 | QYIPTFHVY (also called QYIPTFHVY) [SLC44A5-003] |
| > 75 | LYHNWRHAF (also called LYHNWRHAF) [PDE11-002] |
